Counter-ions that a name gives are not always drawn.
Assay: Pharmacokinetics - neutralization experiment with avidin i.v. in rat
Type: in vivo
Conditions: s.c. 500 nmol/kg
Method: 3.2 Pharmacokinetics—Neutralization Experiment:
Rats were treated with compound 10, 12, or 27 at a dose of 100 nmol/kg s.c. At t=1 h, a blood sample was taken and 10 mg/kg of Avidin (from egg white, Sigma) was administered i.v. to the rats treated with compound 10 or 12. Blood was sampled at 0.5-1-3-6 and 23 hours subsequently. The blood was treated as described in the pharmacokinetic experiment and the concentration of the samples was determined by measuring the (residual) anti-Xa activity. (FIG. 8)
In a separate experiment compound 10, 17 or 26 was administered at a dose of 500 nmol/kg s.c. after which blood was collected at 24 hours. Then 10 mg/kg avidin was administered intravenously and blood was collected at 25 and 26 hours. (FIG. 9)

With `CO[C@H]1O[C@H](COS(=O)(=O)O)[C@@H](O[C@@H]2O[C@@H](C(=O)O)[C@@H](O[C@H]3O[C@H](COS(=O)(=O)O)[C@@H](O[C@@H]4O[C@H](C(=O)O)[C@@H](O[C@H]5O[C@H](COS(=O)(=O)O)[C@@H](OCCOCCOCCOCCNC(=O)[C@H](CCCCN(C)C(=O)CCCC[C@@H]6SC[C@@H]7NC(=O)N[C@@H]76)NC(=O)COCCOCCOCCOCCNC(=O)c6cccc(S(=O)(=O)N[C@@H](Cc7ccc(OCCCCC8CCNCC8)cc7)C(=O)O)c6)[C@H](OC)[C@H]5OC)[C@H](OC)[C@H]4OC)[C@H](OS(=O)(=O)O)[C@H]3OS(=O)(=O)O)[C@H](OC)[C@H]2OC)[C@H](OS(=O)(=O)O)[C@H]1OS(=O)(=O)O` [Compound 26, sodium salt] the level at time molar at 24 h (plasma, sc, 24 h, before avidin, read-out: Plasma level T = 24 h) was 1070 ± 58 nM, the “Plasma level T = 26 h” value (2 hours after avidin 10 mg/kg i.v. at t = 24 h) was 361 ± 26 nM and the “% reduction of plasma concentration” value (within 2 hours after avidin 10 mg/kg i.v. at t = 24 h, sodium salt) was 66%.
